# From the supplement of paper PMC9112550, “Optimization of the antimicrobial peptide Bac7 by deep mutational scanning” (BMC Biology, 2022)
# Tested on: Escherichia coli TOP10
# Experiment: shrunken log2 fold change of peptide-encoding DNA abundance (4.5 h post-induction vs induction); higher = less antimicrobial activity (less host growth inhibition)
# Details: time post-induction: 4.5 h; library: site-saturation at positions 5, 18, 19, 20
# 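Note: peptides expressed intracellularly from a pBAD plasmid library in pooled LB shake-flask culture, induced with 0.3% L-arabinose, DNA abundance read by NGS, three biological replicates, DESeq2 with apeglm shrinkage.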
row,Sequence,shrunken log2 fold change
1,RRIRCRPPRLPRPRPRPPLNPRP,0.212
2,RRIRCRPPRLPRPRPRPPLQPRP,0.228
3,RRIRCRPPRLPRPRPRPPNEPRP,0.309
4,RRIRCRPPRLPRPRPRPPNGPRP,-0.0741
5,RRIRCRPPRLPRPRPRPPNKPRP,-0.0142
6,RRIRCRPPRLPRPRPRPPNLPRP,-0.0983
7,RRIRCRPPRLPRPRPRPPNPPRP,0.761
8,RRIRCRPPRLPRPRPRPPNTPRP,-0.0497
9,RRIRCRPPRLPRPRPRPPPCPRP,1.07
10,RRIRCRPPRLPRPRPRPPPHPRP,1.3
11,RRIRCRPPRLPRPRPRPPPIPRP,0.998
12,RRIRCRPPRLPRPRPRPPQYPRP,-0.0607
13,RRIRCRPPRLPRPRPRPPSLPRP,0.413
14,RRIRCRPPRLPRPRPRPPSQPRP,0.355
15,RRIRCRPPRLPRPRPRPPVHPRP,-0.112
16,RRIRCRPPRLPRPRPRPPVNPRP,-0.0382
17,RRIRCRPPRLPRPRPRPPWCPRP,-0.123
18,RRIRCRPPRLPRPRPRPPYWPRP,0.279
19,RRIRCRPPRLPRPRPRPQAAPRP,0.225
20,RRIRCRPPRLPRPRPRPQAFPRP,-0.00585
21,RRIRCRPPRLPRPRPRPQATPRP,0.122
22,RRIRCRPPRLPRPRPRPQAWPRP,-0.23
23,RRIRCRPPRLPRPRPRPQAYPRP,0.0414
24,RRIRCRPPRLPRPRPRPQCSPRP,-0.0788
25,RRIRCRPPRLPRPRPRPQEMPRP,-0.627

row,Sequence,shrunken log2 fold change
1,RRIRCRPPRLPRPRPRPQGIPRP,0.158
2,RRIRCRPPRLPRPRPRPQGKPRP,-0.145
3,RRIRCRPPRLPRPRPRPQGQPRP,0.155
4,RRIRCRPPRLPRPRPRPQILPRP,-0.354
5,RRIRCRPPRLPRPRPRPQKCPRP,-0.0526
6,RRIRCRPPRLPRPRPRPQKLPRP,-0.188
7,RRIRCRPPRLPRPRPRPQLSPRP,0.122
8,RRIRCRPPRLPRPRPRPQMSPRP,-0.201
9,RRIRCRPPRLPRPRPRPQNVPRP,-0.749
10,RRIRCRPPRLPRPRPRPQQNPRP,0.0237
11,RRIRCRPPRLPRPRPRPQQQPRP,0.339
12,RRIRCRPPRLPRPRPRPQRTPRP,0.288
13,RRIRCRPPRLPRPRPRPQSDPRP,-0.69
14,RRIRCRPPRLPRPRPRPQTAPRP,0.225
15,RRIRCRPPRLPRPRPRPQTSPRP,-0.209
16,RRIRCRPPRLPRPRPRPQYRPRP,-2.05
17,RRIRCRPPRLPRPRPRPRCNPRP,0.00442
18,RRIRCRPPRLPRPRPRPRCWPRP,0.502
19,RRIRCRPPRLPRPRPRPRDMPRP,-0.167
20,RRIRCRPPRLPRPRPRPREIPRP,0.218
21,RRIRCRPPRLPRPRPRPRFCPRP,0.071
22,RRIRCRPPRLPRPRPRPRFHPRP,-0.393
23,RRIRCRPPRLPRPRPRPRHAPRP,0.451
24,RRIRCRPPRLPRPRPRPRHGPRP,0.116
25,RRIRCRPPRLPRPRPRPRIIPRP,-0.443

row,Sequence,shrunken log2 fold change
1,RRIRCRPPRLPRPRPRPRKGPRP,0.201
2,RRIRCRPPRLPRPRPRPRLMPRP,0.174
3,RRIRCRPPRLPRPRPRPRLNPRP,0.00503
4,RRIRCRPPRLPRPRPRPRLQPRP,0.425
5,RRIRCRPPRLPRPRPRPRLWPRP,1.01
6,RRIRCRPPRLPRPRPRPRMFPRP,0.0907
7,RRIRCRPPRLPRPRPRPRMVPRP,0.205
8,RRIRCRPPRLPRPRPRPRQNPRP,0.226
9,RRIRCRPPRLPRPRPRPRRFPRP,0.338
10,RRIRCRPPRLPRPRPRPRRPPRP,0.654
11,RRIRCRPPRLPRPRPRPRRSPRP,0.762
12,RRIRCRPPRLPRPRPRPRSTPRP,0.0137
13,RRIRCRPPRLPRPRPRPRVGPRP,0.472
14,RRIRCRPPRLPRPRPRPRVLPRP,3.12
15,RRIRCRPPRLPRPRPRPRWDPRP,-0.128
16,RRIRCRPPRLPRPRPRPRYNPRP,-0.465
17,RRIRCRPPRLPRPRPRPSALPRP,-0.0403
18,RRIRCRPPRLPRPRPRPSAMPRP,0.272
19,RRIRCRPPRLPRPRPRPSANPRP,0.0237
20,RRIRCRPPRLPRPRPRPSCNPRP,0.329
21,RRIRCRPPRLPRPRPRPSDRPRP,-0.473
22,RRIRCRPPRLPRPRPRPSDSPRP,-0.34
23,RRIRCRPPRLPRPRPRPSDWPRP,-0.0723
24,RRIRCRPPRLPRPRPRPSDYPRP,-1.15
25,RRIRCRPPRLPRPRPRPSFKPRP,-0.75

row,Sequence,shrunken log2 fold change
1,RRIRCRPPRLPRPRPRPSFNPRP,-0.882
2,RRIRCRPPRLPRPRPRPSFVPRP,-0.68
3,RRIRCRPPRLPRPRPRPSFWPRP,-0.0552
4,RRIRCRPPRLPRPRPRPSHDPRP,-0.235
5,RRIRCRPPRLPRPRPRPSIDPRP,-0.505
6,RRIRCRPPRLPRPRPRPSKVPRP,-0.156
7,RRIRCRPPRLPRPRPRPSLLPRP,-0.386
8,RRIRCRPPRLPRPRPRPSMEPRP,-0.344
9,RRIRCRPPRLPRPRPRPSMGPRP,-0.169
10,RRIRCRPPRLPRPRPRPSMYPRP,-0.418
11,RRIRCRPPRLPRPRPRPSNDPRP,-0.451
12,RRIRCRPPRLPRPRPRPSNRPRP,-0.253
13,RRIRCRPPRLPRPRPRPSQNPRP,-0.141
14,RRIRCRPPRLPRPRPRPSRDPRP,0.189
15,RRIRCRPPRLPRPRPRPSRMPRP,-0.144
16,RRIRCRPPRLPRPRPRPSRQPRP,0.222
17,RRIRCRPPRLPRPRPRPSSKPRP,-0.48
18,RRIRCRPPRLPRPRPRPSSMPRP,-0.859
19,RRIRCRPPRLPRPRPRPSSTPRP,-0.855
20,RRIRCRPPRLPRPRPRPSSWPRP,-0.251
21,RRIRCRPPRLPRPRPRPSSYPRP,-0.531
22,RRIRCRPPRLPRPRPRPSWPPRP,-0.155
23,RRIRCRPPRLPRPRPRPSWVPRP,-0.273
24,RRIRCRPPRLPRPRPRPSYAPRP,-0.544
25,RRIRCRPPRLPRPRPRPSYHPRP,0.811

row,Sequence,shrunken log2 fold change
1,RRIRCRPPRLPRPRPRPTAAPRP,1.33
2,RRIRCRPPRLPRPRPRPTALPRP,0.216
3,RRIRCRPPRLPRPRPRPTAYPRP,-0.137
4,RRIRCRPPRLPRPRPRPTCGPRP,0.111
5,RRIRCRPPRLPRPRPRPTCVPRP,-0.0603
6,RRIRCRPPRLPRPRPRPTECPRP,-0.168
7,RRIRCRPPRLPRPRPRPTESPRP,0.101
8,RRIRCRPPRLPRPRPRPTEYPRP,-0.564
9,RRIRCRPPRLPRPRPRPTFYPRP,-0.237
10,RRIRCRPPRLPRPRPRPTHMPRP,-0.173
11,RRIRCRPPRLPRPRPRPTKDPRP,-0.489
12,RRIRCRPPRLPRPRPRPTLLPRP,0.0984
13,RRIRCRPPRLPRPRPRPTLRPRP,0.15
14,RRIRCRPPRLPRPRPRPTLYPRP,-0.396
15,RRIRCRPPRLPRPRPRPTMEPRP,-0.088
16,RRIRCRPPRLPRPRPRPTMPPRP,-0.281
17,RRIRCRPPRLPRPRPRPTNPPRP,-0.429
18,RRIRCRPPRLPRPRPRPTNSPRP,-0.336
19,RRIRCRPPRLPRPRPRPTPAPRP,0.933
20,RRIRCRPPRLPRPRPRPTPYPRP,0.00933
21,RRIRCRPPRLPRPRPRPTQMPRP,0.565
22,RRIRCRPPRLPRPRPRPTQWPRP,0.202
23,RRIRCRPPRLPRPRPRPTSMPRP,-0.308
24,RRIRCRPPRLPRPRPRPTSTPRP,-0.165
25,RRIRCRPPRLPRPRPRPTTKPRP,-0.0602

row,Sequence,shrunken log2 fold change
1,RRIRCRPPRLPRPRPRPTVHPRP,-0.413
2,RRIRCRPPRLPRPRPRPTWVPRP,0.342
3,RRIRCRPPRLPRPRPRPVAVPRP,-0.043
4,RRIRCRPPRLPRPRPRPVCAPRP,0.264
5,RRIRCRPPRLPRPRPRPVDFPRP,-0.252
6,RRIRCRPPRLPRPRPRPVEFPRP,-0.05
7,RRIRCRPPRLPRPRPRPVEGPRP,0.0501
8,RRIRCRPPRLPRPRPRPVEHPRP,0.0272
9,RRIRCRPPRLPRPRPRPVFCPRP,-0.131
10,RRIRCRPPRLPRPRPRPVFIPRP,-0.612
11,RRIRCRPPRLPRPRPRPVGPPRP,0.326
12,RRIRCRPPRLPRPRPRPVHEPRP,-0.073
13,RRIRCRPPRLPRPRPRPVHNPRP,-0.415
14,RRIRCRPPRLPRPRPRPVHTPRP,0.101
15,RRIRCRPPRLPRPRPRPVIAPRP,-0.2
16,RRIRCRPPRLPRPRPRPVIHPRP,-0.567
17,RRIRCRPPRLPRPRPRPVIMPRP,-0.604
18,RRIRCRPPRLPRPRPRPVIPPRP,-0.392
19,RRIRCRPPRLPRPRPRPVITPRP,-0.496
20,RRIRCRPPRLPRPRPRPVKHPRP,-0.263
21,RRIRCRPPRLPRPRPRPVKKPRP,0.0604
22,RRIRCRPPRLPRPRPRPVLEPRP,-0.249
23,RRIRCRPPRLPRPRPRPVLIPRP,-0.414
24,RRIRCRPPRLPRPRPRPVLSPRP,-0.192
25,RRIRCRPPRLPRPRPRPVMIPRP,-0.0658
